Km, kcat and kcat/Km data for 8 proteins are collected here from article PMC7617285, “Dehydrogenase versus oxidase function: the interplay between substrate binding and flavin microenvironment” (ACS catalysis, 2025).

Changes are numbered by the printed parent chain. Names may count otherwise.

Common to all, as to experiment: purified protein
Substrate in data set [1]: COc1cc(CO)ccc1O
Type of data set: biochemical, Rhodococcus jostii. The settings on record: molecular oxygen as acceptor, 25 °C, 50 mM potassium phosphate pH 7.5, 150 mM NaCl.

Substrate in data set [2]: COc1cc(CO)ccc1O
Type of data set: biochemical, Hyphococcus luteus. To be noted: 100 μM DCPIP as acceptor, 25 °C, 50 mM potassium phosphate pH 7.5, 150 mM NaCl.

Substrate in data set [3]: C=CCc1ccc(O)c(OC)c1
Type of data set: biochemical, Hyphococcus luteus. The settings on record: 100 μM DCPIP as acceptor, 25 °C, 50 mM potassium phosphate pH 7.5, 150 mM NaCl.

Substrate in data set [4]: COCc1ccc(O)cc1
Type of data set: biochemical, Hyphococcus luteus. To be noted: 100 μM DCPIP as acceptor, 25 °C, 50 mM potassium phosphate pH 7.5, 150 mM NaCl.

Substrate in data set [5]: OCc1ccc(O)cc1
Type of data set: biochemical, Hyphococcus luteus. To be noted: 100 μM DCPIP as acceptor, 25 °C, 50 mM potassium phosphate pH 7.5, 150 mM NaCl.

B1: EUGO (eugenol oxidase from Rhodococcus jostii RHA1) (Rhodococcus jostii RHA1) (protein)
chain: MTRTLPPGVSDERFDAALQRFRDVVGDKWVLSTADELEAFRDPYPVGAAEANLPSAVVSPESTEQVQDIVRIANEYGIPLSPVSTGKNNGYGGAAPRLSGSVIVKTGERMNRILEVNEKYGYALLEPGVTYFDLYEYLQSHDSGLMLDCPDLGWGSVVGNTLDRGVGYTPYGDHFMWQTGLEVVLPQGEVMRTGMGALPGSDAWQLFPYGFGPFPDGMFTQSNLGIVTKMGIALMQRPPASQSFLITFDKEEDLEQIVDIMLPLRINMAPLQNVPVLRNIFMDAAAVSKRTEWFDGDGPMPAEAIERMKKDLDLGFWNFYGTLYGPPPLIEMYYGMIKEAFGKIPGARFFTHEERDDRGGHVLQDRHKINNGIPSLDELQLLDWVPNGGHIGFSPVSAPDGREAMKQFEMVRNRANEYNKDYAAQFIIGLREMHHVCLFIYDTAIPEAREEILQMTKVLVREAAEAGYGEYRTHNALMDDVMATFNWGDGALLKFHEKIKDALDPNGIIAPGKSGIWSQRFRGQNL
notes: covalent FAD on H390
For the protein B1, in data set [1], the Km was found to be 204.4 ± 28.9 µM, the kcat is 9.68 ± 0.43 s⁻¹ and the kcat/Km was 47400 M⁻¹ s⁻¹.

B2: VAD (vanillyl-alcohol dehydrogenase from Marinicaulis flavus) (Hyphococcus luteus; P151I) (protein)
chain: MAAPLPEGVSAEAMSSALDRFARIVGADWVFTEDKITPYEDPYTISNDETEHRPYAAVAPASTEEVQEIVRVANEFGVPLWPVSRGKNFAYGGAAPVMSGTVVLDMNRMNRILEVNEEFGYALVEPGVSYFELYDYIQEKGLKLWIDVPDIGWGSVVGNALDHGIGYTPYGDHFAMQCGMEVVLPNGEVVRTGMGAMPGNNTWQLFKYGYGPYVDGIFSQSNFGVVTKMGIWLMPEPAGYRPYLITFENEDDIETVTERLRPLKVAGVIQNGATVRSLVLDAAITRTKSQYYDGDGPIPPSVAKTMMADLDLGMWNFCGALYGPPPVMDTLWTAIRDSFADIPGVKFYFPEDRRHKVDLLLHRAETMKGVPKLTEFNFLNWDGGGGHVGFSPVSPITGKDAIKQYNMVSSRVREYGFDYMGLLAIGWRDLHHVTVIVYDKTDPDERKKLDELFNILVDEAAAEGYGEYRTHIRYMDRIAKTYSWNDNALWKMHETIKDALDPNGILAPGKSGIWGKNRRKA
notes: SUMO tag cleaved for crystals; covalent FAD on H387; dimer
Take B2: in data set [2], the Km was determined as 37.5 ± 9.2 µM, the kcat is 0.73 ± 0.04 s⁻¹ and the kcat/Km turned out to be 19000 M⁻¹ s⁻¹.

B3: VAD (vanillyl-alcohol dehydrogenase from Marinicaulis flavus) (Hyphococcus luteus; P151T) (protein)
chain: B2 chain with I151T
notes: as for B2
On to B3, for which, in data set [2], the Km amounted to 17.6 ± 5.5 µM, the kcat came out at 0.48 ± 0.03 s⁻¹ and the kcat/Km came out at 27000 M⁻¹ s⁻¹.

B4: VAD (vanillyl-alcohol dehydrogenase from Marinicaulis flavus) (Hyphococcus luteus; P151V) (protein)
chain: B2 chain with I151V
notes: as for B2
On to B4, for which, in data set [2], the Km amounted to 42.2 ± 6.6 µM, the kcat worked out at 0.90 ± 0.04 s⁻¹ and the kcat/Km was found to be 21000 M⁻¹ s⁻¹.

B5: VAD (vanillyl-alcohol dehydrogenase from Marinicaulis flavus) (Hyphococcus luteus) (protein)
chain: B2 chain with I151P
notes: as for B2
In the case of B5, the Km in data set [3] is 51.2 ± 13.1 µM; in data set [4] it was 330 ± 40 µM; in data set [5], 208 ± 9 µM; in data set [2], 74.2 ± 12.4 µM. Further, the kcat in data set [3] came to 0.81 ± 0.06 s⁻¹; in data set [4], 0.06 ± 0.003 s⁻¹; in data set [5], 0.25 ± 0.01 s⁻¹; in data set [2], 0.44 ± 0.02 s⁻¹. The kcat/Km in data set [3] was 16000 M⁻¹ s⁻¹; in data set [4] it was 200 M⁻¹ s⁻¹; in data set [5], 1200 M⁻¹ s⁻¹; in data set [2] it was 6000 M⁻¹ s⁻¹.

B6: VAD (vanillyl-alcohol dehydrogenase from Marinicaulis flavus) (Hyphococcus luteus; P151L) (protein)
chain: B2 chain with I151L
notes: as for B2
For the protein B6, in data set [2], the Km worked out at 72.4 ± 6.3 µM, the kcat turned out to be 0.76 ± 0.02 s⁻¹ and the kcat/Km turned out to be 10500 M⁻¹ s⁻¹.

B7: VAD (vanillyl-alcohol dehydrogenase from Marinicaulis flavus) (Hyphococcus luteus; P151G) (protein)
chain: B2 chain with I151G
notes: as for B2
In the case of B7, in data set [2], the Km is 316.5 ± 39.7 µM, the kcat was 1.49 ± 0.07 s⁻¹ and the kcat/Km came out at 5000 M⁻¹ s⁻¹.

B8: VAD (vanillyl-alcohol dehydrogenase from Marinicaulis flavus) (Hyphococcus luteus; P151N) (protein)
chain: B2 chain with I151N
notes: as for B2
As for B8, in data set [2], the Km is 151 ± 24 µM, the kcat amounted to 0.14 ± 0.07 s⁻¹ and the kcat/Km stood at 1000 M⁻¹ s⁻¹.

As a reminder, the Km is the concentration of substrate that gives half-maximal velocity. A word on the kcat: it is the maximal rate divided by the concentration of active sites. One may read the kcat/Km as the second-order rate constant that governs catalysis at low substrate concentration.
